Among the data in patent US20240294945A1 are base editing efficiency and cytosine-to-thymine editing efficiency values, retold here.

Holding throughout (assay): cell-based or functional assay
In assay [1] the target is right-TALE:G1333-C, mtND1-targeted DdCBE subunit (Burkholderia cenocepacia).
In assay [2] the target is TALE-free DddAtox half G1333-C (Burkholderia cenocepacia) (UniProt P0DUH5).
Assay [3] has as its target right-TALE:G1397C (the C-terminal G1397 DddAtox half fused to the C-terminus of the right-TALE array (Burkholderia cenocepacia)).
Assay [4] addresses TALE-free DddAtox half G1397-C (Burkholderia cenocepacia).
The target in assay [5] is TALE-free DddAtox half G1333-N (Burkholderia cenocepacia) (UniProt P0DUH5).
Assay [6] concerns the target TALE-free DddAtox half G1397-N (Burkholderia cenocepacia) (UniProt P0DUH5).

Take “left-TALE:G1333-N, mtND1-targeted DdCBE subunit”: the base editing efficiency at position C8 of the mtND1 target, HEK293T in assay [1] was found to be 56.1%; in assay [2] it was 32.7%.

On to “left-TALE:G1397N (the N-terminal G1397 DddAtox half fused to the C-terminus of the left-TALE array),”, for which the cytosine-to-thymine editing efficiency at C11 of the mtND1 target, HEK293T in assay [3] turned out to be 60.7%. In assay [4], the base editing efficiency at the mtND1 target, HEK293T was 31%.

Take “right-TALE:G1333-C, mtND1-targeted DdCBE subunit”: the base editing efficiency at position C8 of the mtND1 target, HEK293T in assay [5] was 18.1%.

For “right-TALE:G1397C (the C-terminal G1397 DddAtox half fused to the C-terminus of the right-TALE array”, in assay [6], the base editing efficiency at the mtND1 target, HEK293T stood at 8.1%.
